The experiment has as its target β amyloid (Aβ) 1-40 peptide. As to the kind of experiment: cell-based or functional assay.

Chain of β amyloid (Aβ) 1-40 peptide (peptide, as listed by the source): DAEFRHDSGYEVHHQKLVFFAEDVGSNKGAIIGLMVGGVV

In turn, “AABA protein (β amyloid aggregation blocking activity protein) from Streptomyces sp. KK565 (enzyme)” registered a protection of SHSY-5Y neuronal cells from Aβ-induced death, MTT assay (% more surviving cells than control) of 20.

Substance “AABA protein (β amyloid aggregation blocking activity protein) from Streptomyces sp. KK565” returned an inhibition of Aβ aggregation, Congo red assay of 93.2 % inhibition and an inhibition of Aβ aggregation, thioflavin-T fluorescence assay of 97 % inhibition.

The values are drawn from patent publication US20050009749A1.
